Experiments:
U2AF65 RRM123 = U2AF65 RRM123 (Homo sapiens, UniProt P26368 147-475); experiment: EMSA
U2AF65 RRM123;SF1 1-260 [1] = target: T1, U2AF65 RRM123;SF1 1-260 (Homo sapiens;Homo sapiens, UniProt P26368;Q15637 147-475;1-260, |); experiment: EMSA
[2] = target: U2AF65 RRM123;SF1 2-320 delta-linker (Homo sapiens;Homo sapiens?, UniProt P26368;Q15637 147-475;2-320, |del75-90); experiment: EMSA
U2AF65 RRM123;SF1 2-320 = U2AF65 RRM123;SF1 2-320 (Homo sapiens;Homo sapiens?, UniProt P26368;Q15637 147-475;2-320, |); experiment: EMSA
[3] = target: U2AF65 RRM123;SF1 2-320 delta-alpha1 (Homo sapiens;Homo sapiens?, UniProt P26368;Q15637 147-475;2-320, |del35-68); experiment: EMSA
U2AF65 RRM123;SF1 1-260 [4] = target: T1, U2AF65 RRM123;SF1 1-260; experiment: SAXS

Measured: binding result

U2AF65 RRM123, sequence (P26368 147-475, one chain of several): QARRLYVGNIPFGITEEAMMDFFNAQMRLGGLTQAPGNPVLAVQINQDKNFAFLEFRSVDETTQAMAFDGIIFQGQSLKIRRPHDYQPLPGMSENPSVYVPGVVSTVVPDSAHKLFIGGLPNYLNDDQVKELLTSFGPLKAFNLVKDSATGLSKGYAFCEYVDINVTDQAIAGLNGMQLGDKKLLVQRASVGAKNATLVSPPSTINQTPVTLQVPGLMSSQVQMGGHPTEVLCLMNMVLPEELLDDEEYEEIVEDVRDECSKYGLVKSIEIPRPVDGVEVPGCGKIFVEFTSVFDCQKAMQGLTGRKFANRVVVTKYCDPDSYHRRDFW

B1: 3'-splice site RNA (AdML intron 1, consensus BPS) (ssRNA)
RNA: GGUCAUACUAACCCUGUCCCUUUUUUUUCCACAGC
not listed: U2AF65 RRM123;SF1 1-260 [4]
binds: all other assays above

B2: 20-mer BPS-Py tract RNA (ssRNA)
RNA: UAUACUAACAAUUUUUUUUU
binds: U2AF65 RRM123;SF1 1-260 [4]
